Measured values taken from the RNAGym collection of RNA variant scans (doi:10.1073/pnas.2313332121).

B1: TPR t1 (parent)
chain: GACCAAUCUGCCCUCAGAGCUCGAGAACAUCUUCGGAUGCAGAGGAGGCAGGCUUCGGUGGCGCGAUAGCGCCAACGUCCUCAACCUCCAAUGCAUCCCACCACAUGAUGAUGCCUGAAGAGCCUUGGUUUUUUG

Variants of: B1
Test: polymerase ribozyme fitness, log enrichment relative to wild type (log ratio); higher = more active; in vitro selection for triplet polymerase activity
Method in brief: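 Mutant libraries of each subunit of a heterodimeric triplet polymerase ribozyme were built by PCR and transcribed. Each library went through one round of in vitro selection in triplicate: annealing with biotinylated primer, partner subunit and triplets, frozen incubation at −7 °C, gel excision of extended constructs, streptavidin-bead capture and RT-PCR. Input and output libraries were Illumina-sequenced; only genotypes with ≥10 input reads and ≥1 read per output were kept. Fitness is log2(genotype enrichment/wild-type enrichment), using inverse-variance-weighted replicate averages.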

| Variant | polymerase ribozyme fitness (log ratio) |
| --- | --- |
| G47C C94U | -1.71 |
| A2C G61C | -3.02 |
| U54A G63A C73G | -6.66 |
| G42C C89G | -1.06 |
| A46G G60A | 0.0971 |
| G61C G93C | -3.2 |
| C49A C104G | -6.42 |
| C101A U131G | -1.9 |
| A111C A121C | -0.386 |
| U9G C40G C53G U130G | -1.2 |
| G25A U96A | -5.41 |
| U7C C53U G71A U92G C114U | -2.79 |
| A5G G48C | -1.69 |
| G36A G61A | -0.395 |
| G17U C56G | -3.08 |
| U78C C89U C115A | -0.146 |
| U7A G120A | 1.77 |
| A66U C72G A95C G110U | -6.57 |
| G47U U81A | -3.01 |
| G25A G71U | -6.24 |
| C88A C114U | -2.51 |
| A6U C11G G48U C82G C85U | -0.874 |
| G107A G117A | -5.11 |
| C15A A29U C73U C115U U131A | -2.29 |

| Variant | polymerase ribozyme fitness (log ratio) |
| --- | --- |
| C70U C79G C114A | -6.1 |
| C73G A105C | -3.81 |
| G69U C79U A111G U129C U133A | -0.673 |
| C49G C62A G93U C104A G113U U116A | -7.29 |
| A26U A37G C53A G120C C123A | -2.54 |
| G39C C76U U126G | -2.72 |
| C8U C62U C86U C101A | -1.69 |
| A5U A16C G57C G69A G93A | -6.66 |
| G65A G69A U112C | -4.9 |
| A6U C70A C124A | 0.175 |
| U96C G110U | -0.753 |
| C72G C86A U129C | -2.2 |
| C12U C56A G113A | -0.59 |
| C11G C53G C62A C89A G122U | -3.13 |
| G10A C86U U112A | 1.32 |
| C85U A121G | 1.61 |
| U14G G61U C86G C115G | -5.92 |
| G39U G48U A90U | -2.92 |
| G42U G44U C53U G69U C79A G127U | -3.88 |
| G10U C12U C82A A84G | -0.497 |
| U116G U126C | -3.51 |
| C12U A27C C49A G61A U106A C115U | -4.69 |
| C53U C97G | -4.59 |
| C34U G45U C88A C124G | -4.4 |

| Variant | polymerase ribozyme fitness (log ratio) |
| --- | --- |
| A29U C73A A118U | -0.992 |
| C53U C88A G110C | -4.54 |
| C49U U59G | -1.24 |
| G25C U32C G45A C49A A68U G69A A121U | -7.08 |
| G60U C89U U106A | -0.38 |
| A6U C123U | 1.41 |
| C89U G107A | -5.32 |
| C73U C94A C104U G117U | -3.3 |
| U109C U126A | -4.99 |
| G48A C56A | -1.1 |
| C28A G60A C97U U112A | -2.26 |
| C102U U130G | -2.52 |
| U59A C89A C101U G113U | -3.68 |
| C4G G60A | -1.91 |
| G48A G60U C115U | -0.887 |
| C12A C15G C53U C88U U112A G113U C123A U129C | -3.91 |
| C12A U38C G44A C56G G93A C104G G110U | -7.49 |
| C53U U55G G63U U81C G93U U116C G135C | -5.21 |
| A2G A50U G57C G60C C85G G113A | -2.81 |
| A5G G69A | -2.1 |
| C22A C56A | -3.44 |
| G63A G77U A105G | -4.78 |
| U21A C88G | -0.967 |
| C12A G107A | -5.12 |

| Variant | polymerase ribozyme fitness (log ratio) |
| --- | --- |
| A100C C102U | -5.66 |
| C13U G71C A95C | -1.52 |
| C12A C86U | -0.885 |
| G61U U92G | -2.97 |
| A95C A119U | -1.28 |
| A37U C70A C99U | -5.64 |
| A75G A83C U130C U132A | 0.388 |
| C4G G77A C86U C97U | -3.31 |
| C124U G135U | -0.0615 |
| C15U A50U C73U A118U G127A | -5.35 |
| C8G U21A C76G C99A U112A | -5.05 |
| C56U A74G G110A U112A | -2.67 |
| U7C G61C | -1.87 |
| G45U A75G U106C A119U A121C U130A | -0.0532 |
| U87A | 0.0155 |
| U87A G117C | -3.81 |
| A6C C15G A46C G107U G117C | -4.61 |
| C101U C104G U109G | -6.55 |
| U9C C13A A50G C72U A84U C89A C98U C102A | -6.4 |
| C12A C101U | -0.736 |
| A5C G69A | -3.11 |
| C22A C73U A83G C115A | -4.8 |
| C31G A41C G58C C62U | -8.8 |
| A5U C22U A50U U54G | -6.42 |

| Variant | polymerase ribozyme fitness (log ratio) |
| --- | --- |
| G60A G117A | -1.29 |
| G17C G69U G120U G128A | -2.65 |
| A83G G120U | -0.6 |
| C11A G61U C102U | -3.03 |
| G47A U55G C70A C82U | -1.41 |
| C11A G42C G51C G57U C62U U78C C89U G113A G122C | -6.22 |
| C56U C101U | 0.177 |
| G47C G110A | -3.26 |
| C124U | 1.54 |
| C40U C53U A66G | -1.67 |
| C98U C114U | -3.88 |
| U81A A90G | -0.0144 |
| U9G C12G C53A C99U C102U | -5.32 |
| C12U G110C | -2.23 |
| C13U C62A | -0.888 |
| C123U U126A G135U | 0.771 |
| C11U G117U | -2.72 |
| C13U G120U | 0.513 |
| C20U G63U A118G U132A | -2.9 |
| C15U U38A G60U A83G | -2.98 |
| U59G U78C C115U U130C | -1.13 |
| U9A G52U C72A C88U C124A | 1.2 |
| G107U A121U U132A | -2.5 |
| G63A C73A | -1.93 |

| Variant | polymerase ribozyme fitness (log ratio) |
| --- | --- |
| C15U C72A | -1.07 |
| G113U G120C | -1.71 |
| C11U C56A C82U C86G | -1.73 |
| C11U C20A A37U G61A A83C C97A C98U U112C | -7.47 |
| C28U C88U | -1.61 |
| A2G C72U A74U C102U U130A | -3.21 |
| G63A A105U | -3.59 |
| C4A C13U A24C C40G A111G | -5.59 |
| C40U G60A A95U G117C A121C | -6.15 |
| C13G C82A | -2.47 |
| C62G G135U | -2.31 |
| C22U U33A G36A G42A C72U U87A G113A | -6.59 |
| A16U G17C C73U | -3.41 |
| G51U C123U | -2.12 |
| G51A A100U | -4.16 |
| G44A U55A C85G G113A | -3.2 |
| C53G U87G C99G C101U G107U G113A | -7.29 |
| G35U C56U A121G | -4.8 |
| C82U G113A | -1.1 |
| C12G C73U C97A | -4.85 |
| C104A G127A | -3.1 |
| G44A U78A G93U | -1.85 |
| C56A C86A G120C | 0.246 |
| G69A C115U | -2.83 |

| Variant | polymerase ribozyme fitness (log ratio) |
| --- | --- |
| C72G C85U | -1.45 |
| G42U G110A | -2.74 |
| C53U C101G U130A | -2.65 |
| G61C G122A U126C G135U | -4.38 |
| G58U G69A A111C | -5.38 |
| A18C A83C | -1.95 |
| C62G C88U | -1.37 |
| A29U A37U G44C C72G C114U | -4.21 |
| C22G C56A C64U C80G C101G U130A | -5.63 |
| U9A A24G | -0.725 |
| U21G C64U | -2.06 |
| C40A U54G C62U | -1.83 |
| A37G G61C | -1.44 |
| C15G G25U C34G G60C U109G | -6.48 |
| C8G C82A | 0.946 |
| C49G G93U | -1.49 |
| C3U C62A C115A U125G | -1.86 |
| G61U C62U | -3.5 |
| G10U G39U | -0.472 |
| G10U A18G A37U C40U U112A U126C | -1.57 |
| C56U G110A | -0.719 |
| U30C G36C C70G U78C A84C U112G | -6.17 |
| G10U C115G | -1.99 |
